Several values for one entry are separate records, joined by “and”; a condition that tells them apart may be missing. Identical values can stand only once.

This is an account of results in paper PMC4268010 (Molecular cell, 2014).

The labels stand for the following.
B1: His6-Flag-tagged Mph1 (enzyme, budding yeast, UniProt P40562 1-993, looked up)
chain: MASADDYFSDFEDDELDKLYEKAINKSVKETITRRAVPVQKDLHDNVLPGQKTVYEEIQRDVSFGPTHHELDYDALSFYVYPTNYEVRDYQYTIVHKSLFQNTLCAIPTGMGKTFIASTVMLNYFRWTKKAKIIFTAPTRPLVAQQIKACLGITGIPSDQTAILLDKSRKNREEIWANKRVFFATPQVVENDLKRGVLDPKDIVCLVIDEAHRATGSSAYTNVVKFIDRFNSSYRLLALTATPASDLEGVQEVVNNLDISKIEIRTEESMDIVKYMKKRKKEKIEVPLLLEIEDIIEQLGMAVKPVLQQAIELGIYEECDPSQINAFKAMQQSQKIIANPTIPEGIKWRNFFILQLLNNVGQMLKRLKIYGIRTFFNYFQNKCTEFTTKYNLKKSTNKIAAEFYYHPILKNIKNQCENYLSDPKFVGHGKLQCVRDELMDFFQKRGSDSRVIIFTELRESALEIVKFIDSVADDQIRPHIFIGQARAKEGFDEVKYTRKHAPKGRKKVERLHRQEQEKFLEAERTKRAANDKLERSARRTGSSEEAQISGMNQKMQKEVIHNFKKGEYNVLVCTSIGEEGLDIGEVDLIICYDTTSSPIKNIQRMGRTGRKRDGKIVLLFSSNESYKFERAMEDYSTLQALISKQCIDYKKSDRIIPEDIIPECHETLITINDENEIINEMEDVDEVIRYATQCMMGKKVKPKKAITKKKRVQENKKPKKFFMPDNVETSIVSASTLINKFLVNESGGKQLVTSNENPSKKRKIFKALDNLENDSTEEASSSLETEDEEVSDDNNVFIAEGQNGCQKDLETAIIRTGESLTTLKPLHNFERPNMALFVNDCGLPTKIEKNVKDIRGNQHNLEKEKSCTVDKNNMVLSLDDWNFFRNRYIPEGVSFDVEPNFVQYTKGVKVPHCHKVSKIITLFNDESNDNKKRTIDMNYTKCLARGMLRDEKKFVKVNDKSQVDNNSVNHDSSQSFTLSNAELDDILGSDSDF

For experiment [1], the target named is T1, His6-Flag-tagged Mph1 (budding yeast), P40562.
T1 chain: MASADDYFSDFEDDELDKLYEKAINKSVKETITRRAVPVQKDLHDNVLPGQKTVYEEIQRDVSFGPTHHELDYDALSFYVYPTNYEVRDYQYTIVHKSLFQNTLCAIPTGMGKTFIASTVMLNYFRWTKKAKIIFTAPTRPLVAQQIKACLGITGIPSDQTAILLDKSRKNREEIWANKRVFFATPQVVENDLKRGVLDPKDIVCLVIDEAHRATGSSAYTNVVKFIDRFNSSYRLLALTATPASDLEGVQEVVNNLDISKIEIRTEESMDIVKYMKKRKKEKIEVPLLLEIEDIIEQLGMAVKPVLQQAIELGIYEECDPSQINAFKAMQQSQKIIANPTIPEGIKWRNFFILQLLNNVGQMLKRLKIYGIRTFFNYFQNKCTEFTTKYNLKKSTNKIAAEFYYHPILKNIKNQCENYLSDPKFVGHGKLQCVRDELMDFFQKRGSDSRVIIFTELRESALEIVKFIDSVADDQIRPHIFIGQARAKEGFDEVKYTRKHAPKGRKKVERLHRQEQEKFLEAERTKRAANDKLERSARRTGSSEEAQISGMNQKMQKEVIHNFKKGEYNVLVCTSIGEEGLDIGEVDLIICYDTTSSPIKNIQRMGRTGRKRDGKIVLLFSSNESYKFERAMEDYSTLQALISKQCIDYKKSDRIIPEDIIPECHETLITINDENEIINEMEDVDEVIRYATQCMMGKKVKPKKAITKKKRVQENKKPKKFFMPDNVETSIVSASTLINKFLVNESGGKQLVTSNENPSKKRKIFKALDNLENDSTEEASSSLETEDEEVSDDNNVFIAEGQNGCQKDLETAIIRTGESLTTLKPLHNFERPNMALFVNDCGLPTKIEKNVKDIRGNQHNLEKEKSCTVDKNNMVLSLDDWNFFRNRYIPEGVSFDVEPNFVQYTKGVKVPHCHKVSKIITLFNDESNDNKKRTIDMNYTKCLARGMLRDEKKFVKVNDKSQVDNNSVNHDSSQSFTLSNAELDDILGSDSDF
As to the kind of experiment: atomic force microscopy, volume analysis. Conditions: remark: other sources report otherwise.

A further experiment concerns the target T2, MBP-tagged Smc5 (WT) (UniProt Q08204 1-1093).
T2 sequence (looked up): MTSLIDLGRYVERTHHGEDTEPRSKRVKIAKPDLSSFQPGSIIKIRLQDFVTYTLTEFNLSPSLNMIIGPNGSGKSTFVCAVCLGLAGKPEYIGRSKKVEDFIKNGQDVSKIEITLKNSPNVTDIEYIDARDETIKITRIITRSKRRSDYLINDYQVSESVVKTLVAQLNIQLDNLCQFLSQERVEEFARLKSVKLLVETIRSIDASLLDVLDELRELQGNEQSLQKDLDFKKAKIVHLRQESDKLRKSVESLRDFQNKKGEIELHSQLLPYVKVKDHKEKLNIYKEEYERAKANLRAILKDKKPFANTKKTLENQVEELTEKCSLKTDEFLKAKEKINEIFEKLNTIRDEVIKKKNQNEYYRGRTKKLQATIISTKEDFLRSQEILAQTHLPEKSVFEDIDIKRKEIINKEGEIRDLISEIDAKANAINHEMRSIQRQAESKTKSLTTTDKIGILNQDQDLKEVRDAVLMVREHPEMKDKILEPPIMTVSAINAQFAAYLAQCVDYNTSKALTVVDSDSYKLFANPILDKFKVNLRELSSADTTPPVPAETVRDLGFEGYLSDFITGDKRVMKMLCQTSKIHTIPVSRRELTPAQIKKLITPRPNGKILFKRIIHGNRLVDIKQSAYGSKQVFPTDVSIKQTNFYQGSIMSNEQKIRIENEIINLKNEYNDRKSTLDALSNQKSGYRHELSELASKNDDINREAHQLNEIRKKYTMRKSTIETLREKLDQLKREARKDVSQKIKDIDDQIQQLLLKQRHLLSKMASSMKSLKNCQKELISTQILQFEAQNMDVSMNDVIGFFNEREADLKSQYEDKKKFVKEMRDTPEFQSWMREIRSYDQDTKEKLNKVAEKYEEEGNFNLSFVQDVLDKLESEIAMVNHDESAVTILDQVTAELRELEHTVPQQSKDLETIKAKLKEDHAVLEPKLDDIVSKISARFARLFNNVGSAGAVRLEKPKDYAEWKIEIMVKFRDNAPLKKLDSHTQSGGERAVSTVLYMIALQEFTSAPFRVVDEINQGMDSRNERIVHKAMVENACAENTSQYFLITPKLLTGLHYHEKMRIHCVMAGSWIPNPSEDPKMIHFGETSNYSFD
The experiment in a line: pull-down.

The next experiment concerns the target T3, Strep-tagged Smc5 (UniProt Q08204 1-1093).
T3 sequence (looked up): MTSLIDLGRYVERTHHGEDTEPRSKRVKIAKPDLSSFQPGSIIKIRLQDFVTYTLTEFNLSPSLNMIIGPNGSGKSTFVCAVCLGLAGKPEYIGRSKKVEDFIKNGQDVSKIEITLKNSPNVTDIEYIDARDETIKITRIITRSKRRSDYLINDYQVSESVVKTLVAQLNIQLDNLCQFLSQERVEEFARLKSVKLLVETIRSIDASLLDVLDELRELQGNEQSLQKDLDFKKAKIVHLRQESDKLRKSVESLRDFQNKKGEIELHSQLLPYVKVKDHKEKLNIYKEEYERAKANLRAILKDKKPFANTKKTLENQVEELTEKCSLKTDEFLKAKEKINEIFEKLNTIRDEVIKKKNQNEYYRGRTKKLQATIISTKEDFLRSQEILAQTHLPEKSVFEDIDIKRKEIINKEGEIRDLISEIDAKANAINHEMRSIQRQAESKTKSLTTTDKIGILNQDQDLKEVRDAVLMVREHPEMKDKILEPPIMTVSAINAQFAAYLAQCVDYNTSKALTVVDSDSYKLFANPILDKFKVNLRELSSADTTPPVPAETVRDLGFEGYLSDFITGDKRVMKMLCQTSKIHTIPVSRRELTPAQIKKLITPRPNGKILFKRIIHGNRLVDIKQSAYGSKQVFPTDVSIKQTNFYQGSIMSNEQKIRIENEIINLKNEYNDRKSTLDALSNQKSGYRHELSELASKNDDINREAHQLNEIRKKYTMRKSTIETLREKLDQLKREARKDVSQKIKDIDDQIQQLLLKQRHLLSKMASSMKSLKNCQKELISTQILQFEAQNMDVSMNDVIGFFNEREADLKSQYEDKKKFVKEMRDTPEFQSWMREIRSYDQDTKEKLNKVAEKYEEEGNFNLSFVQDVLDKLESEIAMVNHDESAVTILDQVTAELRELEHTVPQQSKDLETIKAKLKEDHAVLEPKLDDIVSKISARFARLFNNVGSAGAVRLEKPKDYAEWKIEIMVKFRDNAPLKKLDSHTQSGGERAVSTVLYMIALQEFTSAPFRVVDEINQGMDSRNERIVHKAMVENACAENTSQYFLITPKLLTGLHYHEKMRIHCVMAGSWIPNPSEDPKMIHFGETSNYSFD
As to the kind of experiment: pull-down.

The target in experiment [2] is Myc-Smc5-Strep-Smc6 complex (UniProt Q08204 1-1093; Q12749 1-1114). As to the kind of experiment: pull-down.
The target of experiment [3] is T1, His6-Flag-tagged Mph1 (budding yeast), …. The experiment in a line: atomic force microscopy, volume analysis. Conditions: remark: other sources report otherwise.
In the experiment “His6-Flag-tagged Mph1” the target is B1. The experiment in a line: pull-down.

Myc-Smc5-Strep-Smc6 complex, sequence (Q12749 whole entry, one chain of several): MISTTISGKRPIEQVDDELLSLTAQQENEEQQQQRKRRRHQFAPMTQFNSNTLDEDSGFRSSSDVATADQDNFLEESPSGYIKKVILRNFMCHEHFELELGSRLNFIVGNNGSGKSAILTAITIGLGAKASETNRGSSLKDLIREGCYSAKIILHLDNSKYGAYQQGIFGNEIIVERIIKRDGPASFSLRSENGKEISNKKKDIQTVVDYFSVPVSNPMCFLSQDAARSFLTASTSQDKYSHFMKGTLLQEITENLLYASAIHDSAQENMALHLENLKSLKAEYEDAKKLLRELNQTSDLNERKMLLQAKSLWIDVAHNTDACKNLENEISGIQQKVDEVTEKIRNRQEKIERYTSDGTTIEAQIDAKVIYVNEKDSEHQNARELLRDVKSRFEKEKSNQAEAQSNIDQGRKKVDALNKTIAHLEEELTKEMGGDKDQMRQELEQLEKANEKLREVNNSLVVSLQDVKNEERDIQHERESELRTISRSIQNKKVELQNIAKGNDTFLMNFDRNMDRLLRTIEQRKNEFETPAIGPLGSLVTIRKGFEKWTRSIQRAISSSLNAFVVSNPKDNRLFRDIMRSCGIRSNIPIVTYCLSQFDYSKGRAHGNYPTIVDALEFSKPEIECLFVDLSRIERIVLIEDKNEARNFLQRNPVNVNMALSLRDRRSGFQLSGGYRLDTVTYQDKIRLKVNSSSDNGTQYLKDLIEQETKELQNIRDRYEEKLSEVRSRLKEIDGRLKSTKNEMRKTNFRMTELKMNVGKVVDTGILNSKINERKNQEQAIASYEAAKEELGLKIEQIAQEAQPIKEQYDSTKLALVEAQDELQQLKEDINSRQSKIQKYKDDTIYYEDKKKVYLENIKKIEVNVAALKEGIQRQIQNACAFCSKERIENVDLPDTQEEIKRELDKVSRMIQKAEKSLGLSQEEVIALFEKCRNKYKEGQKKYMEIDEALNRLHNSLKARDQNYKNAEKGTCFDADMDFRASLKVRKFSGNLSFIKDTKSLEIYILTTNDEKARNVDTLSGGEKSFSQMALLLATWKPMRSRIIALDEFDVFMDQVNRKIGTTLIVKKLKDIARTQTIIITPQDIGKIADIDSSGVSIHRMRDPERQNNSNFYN

B1: the stoichiometry N (Mph1 monomer equivalents) in experiment [1] was 1.4; in experiment [3] it was 7.3 and 12 and 17.4. Also, the binding result (in the experiment with MBP-tagged Smc5 (WT); in the experiment with Strep-tagged Smc5; in experiment [2]) was “binds” throughout.

B2: MBP-tagged smc5-ΔNC (residues 149-944) (domain or fragment, UniProt Q08204 149-944, looked up)
chain: DYLINDYQVSESVVKTLVAQLNIQLDNLCQFLSQERVEEFARLKSVKLLVETIRSIDASLLDVLDELRELQGNEQSLQKDLDFKKAKIVHLRQESDKLRKSVESLRDFQNKKGEIELHSQLLPYVKVKDHKEKLNIYKEEYERAKANLRAILKDKKPFANTKKTLENQVEELTEKCSLKTDEFLKAKEKINEIFEKLNTIRDEVIKKKNQNEYYRGRTKKLQATIISTKEDFLRSQEILAQTHLPEKSVFEDIDIKRKEIINKEGEIRDLISEIDAKANAINHEMRSIQRQAESKTKSLTTTDKIGILNQDQDLKEVRDAVLMVREHPEMKDKILEPPIMTVSAINAQFAAYLAQCVDYNTSKALTVVDSDSYKLFANPILDKFKVNLRELSSADTTPPVPAETVRDLGFEGYLSDFITGDKRVMKMLCQTSKIHTIPVSRRELTPAQIKKLITPRPNGKILFKRIIHGNRLVDIKQSAYGSKQVFPTDVSIKQTNFYQGSIMSNEQKIRIENEIINLKNEYNDRKSTLDALSNQKSGYRHELSELASKNDDINREAHQLNEIRKKYTMRKSTIETLREKLDQLKREARKDVSQKIKDIDDQIQQLLLKQRHLLSKMASSMKSLKNCQKELISTQILQFEAQNMDVSMNDVIGFFNEREADLKSQYEDKKKFVKEMRDTPEFQSWMREIRSYDQDTKEKLNKVAEKYEEEGNFNLSFVQDVLDKLESEIAMVNHDESAVTILDQVTAELRELEHTVPQQSKDLETIKAKLKEDHAVLEPKLDDIVSKISARFARLF
On to B2, for which the binding result with His6-Flag-tagged Mph1 is recorded as “binds”.
